Data from PMC8092461 (Nature, 2020).

B1: C119 IgG (antibody, V domains shown)
VH: QVQLVQSGAEVKKPGASVKVSCKASGYTFTSYYMHWVRQAPGQGLEWMGIINPSGGSTSYAQKLQGRVTMTRDTSTSTVYMELSSLRSEDTAVYYCARANHETTMDTYYYYYYMDVWGKGTTVTVSS
VL: QSALTQPASVSGSPGQSITISCTGTSSDVGGYKYVSWYQRHPGKAPKLMIYDVSNRPSGVSNRFSGSKSGNTASLTISGLQAEDEADYYCSSYTSSSTSVVFGGGTQLTVL
B2: C105 IgG (antibody, V domains shown)
VH: QVQLVESGGGLIQPGGSLRLSCAASGFTVSSNYMSWVRQAPGKGLEWVSVIYSGGSTYYADSVKGRFTISRDNSKNTLYLQMNSLRAEDTAVYYCARGEGWELPYDYWGQGTLVTVSS
VL: QSALTQPPSASGSPGQSVTISCTGTSSDVGGYKYVSWYQQHPGKAPKLMIYEVSKRPSGVPDRFSGSKSGNTASLTVSGLQAEDEADYYCSSYEGSNNFVVFGGGTKLTVL
B3: C002 IgG (antibody, V domains shown)
VH: EVQLVESGGGVVQPGRSLRLSCAASGFTFSIYGMHWVRQAPGKGLEWVAVISYDGSNKYYADSVKGRFTISRDNSKNTLYLQMNSLRAEDTAVYYCAKEGRPSDIVVVVAFDYWGQGTLVTVSS
VL: not shown
B4: C121 IgG (antibody, V domains shown)
VH: not shown
VL: QSALTQPASVSGSPGQSITISCTGTSSDVGSYNLVSWYQQHPGKAPKLMIYEGSKRPSGVSNRFSGSKSGNTASLTISGLQAEDEADYYCCSYAGSSTLVFGGGTKLTVL
B5: C104 IgG (antibody, V domains shown)
VH: QVQLQQWGAGLLKPSETLSLSCAVYGGSLSGYYWSWIRQPPGKGLEWIGEINHFGSTGYNPSLKSRVTISVDTSKSQFSVKLSSVTAADTAVYYCARKPLLYSNLSPGAFDIWGQGTMVTVSS
VL: EIVLTQSPGTVSLSPGERATLSCWASQSVSASYLAWYQQKPGQAPRLLIYGASSRATGIPDRFSGSGSGTDFTLTISRLEPEDFAVYYCQQYGTTPRTFGGGTKVEIK
B6: C110 IgG (antibody, V domains shown)
VH: QVQLQQSGAEVKKPGESLKISCKGSGYSFTSYWIGWVRQMPGKGLEWMGIIYPGDSDTRYSPSFQGQVTISADKSISTAYMQWSSLKASDTAMYYCARSFRDDPRIAVAGPADAFDIWGQGTMVTVSS
VL: DIQMTQSPSTLSASVGDRVTITCRASQSISYWLAWYQQKPGKAPKLLIYQASSLESGVPSRFSGSESGTEFTLTISSLQPDDFATYYCQQYNSYPYTFGQGTKLEIK

Each binder was assayed against SARS-CoV-2 RBD (receptor-binding domain of S, residues 331-524) (SARS-CoV-2, UniProt P0DTC2) (assay: SPR).

Row | Binder | binding result
1 | B1 | binds
2 | B2 | binds
3 | B3 | binds
4 | B4 | binds
5 | B5 | binds
6 | B6 | binds
